Assay: soluble on expression in E. coli; label from the status in PepcDB or PDB records

Sequence | soluble on expression in E. coli
MGSDKIHHHHHHMNGIGATPYSESQKFHIAAIILAAGFSLRMKSFKPLLPLGSASVIETAIQSFRKAGFMDIRVVLGHKAGELLPICDALGVQPILNEDYAEGMFSSVKAGVKSLGREVDGFFLLPADNPLIQADTLQRLYEGFNLGPGGIVYPVCQGKRGHPPLISRSYRDSILSWRGEGGLRALLEHYQADALEVGTEDQGVLLDMDTPEDYRTLLKHYGCAPTPTEFECYELLKGNNTPDQVIKHCETVARLSVFLGEQLSEAGLHLNRELLRTSALLHDIARLKPNHPQEGAKLTAAYPEVSAIIAAHMDCPWEPSQPLTEQEIVYLADKLVAKERIVSLQERFKGSVERHQNEPEVLEHVYRRFGQAYRIHDRVEEILGKSVQTLIKSNLGSDVHG | not soluble
MAIIKCDVCAYPFSNKQDPRCSKCHPKITPPSKPKNPYALPMKQQLILGPIVGIVVGLMFAACEGNRPGRATTACMLRARAQAIAAGNPNYTHAKEVSPTRAMLVFRKDGRTRNTNFFCDSLVTDREA | not soluble
MWEHDIVLEKIVDPVPDALYPCCIKAVRVGLKEDSWGEVQAIEEEMSTAELTANVNVALAPFQRKVVKEEGEAKKTKRAASKGRVEEVEQDVWKTLFDQALAYRDLAPWTWMDDDQIFAVVTPDGESLYCTVIGALGQEYGLVIYMGEEGYACLQDILSGTLHPKDAVFKERALLVSLAPRNHLERDDKALLRKHHIPVSGKQLLPMFRSFVPGYYPWFLSEEEAAWAAMALEQAVVVAERLRDGELFLASSARGNRLFARIAERREDGLHWRDGWVPPPKAKKKETSALDIGTDELAKAKTLERAPLFVEFSVAYVNRPIQERRWERPYFPLLVLAADAASGVILHHQVFRGQTDAKTLQQSFLAFARALGCVPSHVRVTKEHGPLLAPLLRELGVNMSTGPTPRSDEVRELFEQFAI | not soluble
MKINNKLVGERIQNIRLSHGDSMEKFGEKFNTSKGTVNNWEKGRNLPNKENLLKIASIGKMSVEELLYGDYNTYLHLKIMDLAPECIKNYDEYNSLHDDITNKALQIAQNTISKIDYQISDETIKKFIDLAIEQSRDLQGNLLKNNLSNFDYSLFGGTRNREYFYFGYRLTYKEKYLYTALLAILNESTKTIYIDDINTARFFNFFGNDIPNSSLKKIDYIAPSEIVSFSTYVRQRSKVIPKILEHILKSSFLLENIDVSGYTVNILEDQLTKHRTIKISKN | not soluble
MGHHHHHHSHMSASYISDPVIAGTNMTWSQEKQSLLMQGEILVETRSHTAWGGAVSACMYLPLRRSQVWQQITDYPRWVQYFPDITKSEVLQRGEVKRLYQAAQKAFFFFTAQVEIYLNVVEVIGHKIQFRMEKGTFVDFTANLELKDCGDGTLLIYGVQATPNIPVPSIFIQQAMNFELPTNMRKMRQVISNSVNS | not soluble
MTEKKERIDVHAYLAEFDDIPGTRVFTAQRARKGYNLNQFAMSLMKAENRERFKADESAYLDEWNLTPAAKAAVLARDYNAMIDEGGNVYFLSKLFSTDGKSFQFAAGSMTGMTQEEYAQMMIDGGRSPAGVRSIKGGY | soluble
MKEVQETAEKIRTMEIRGAGRIAKAAAEVIRDYAAGLEAASIEEFAAGITEVSNYLISTRPTAVSLPNAVKLSSRYSSDNVENARKEVINNANLFIERADKALGRIGKIGAGRVQDGDVIMTHCNSHAALSIITTAFEDGKNISVIATESRPRRQGLLTVRRLNGFGIPTTLIVDSAVRYYMKDVDKVIVGADAIAANGALVNKIGTSQLALAAHEARKSFMVAAETFKFSPSTILGIPIEIEERSTDEVVDPSVLAELPHVQVKNPAFDFTPSEYIDMIVTDIGIIPPAMAYIVIKEHLGWEFEEIAAALEHHHHHH | not soluble
MTMPLRGLGPPDDTGVREVSTGDDHHYAMWDAAYVLGALSAADRREFEAHLAGCPECRGAVTELCGVPALLSQLDRDEVAAISESAPTVVASGLSPELLPSLLAAVHR | soluble
SDIEAYFERIGYKNSVNKLDLATLTEVLQHQMRAVPFENLSMHCGEAMCLGLEATFDHIVRKKRGGWCLQVNHLLYWALTKMGFETTMLGGYVYITPVNKYSSEMVHLLVQVTISDRNYIVDSAYGSSYQMWEPLELTSGKDQPQVPAIFRLTEENGTWYLDQIRREQDVPNQEFVNSDLLEKSKYRKIYSFTLEPRTIEDFEYVNTYLQTSPASVFVSTSFCSLQTSEGVCCLIGSTLTSRRFSYKDNVDLVEFKSLTEEEIEDVLKTTFGISLEKKFVPKHGELVFTI | soluble
MRIFLNTVHLFALCAAAAIATEESTTPKPASWKFGTIAGEPDDYTNSTAVQVNNFKECIAKCSAIFDCIIASQKSKSEPCNLFLWNSVTKVKRAESGGEGQTAFRVFTEQPRCKLSMDELLNGKKYQIYKNDTEHYIWTINKTEDGWAMEYSKTILNNIIHCNDPDAYKYPGVRGCYKIVLPFKEDKKWESGMLSYPEAVGNCTLLGGDGLMTIPSSDFASQIKQNQNSTQSSTVYFIGLTRPDDSSNDNWVWTLPDLKIDSSPLPPWSFPPSLNVEAIWAENCALVSIEADPTKSLLHATLCQQWNRMSGYICHFAQ | not soluble
SENLPAVTTEEPTPMGRGPVGPSGGGSTRDQVRTVVMRPSVSWEKAGPEEAKAPVRGGATVPAESLERPGPSSCFSRDASVITKLAKNEAGAFEPPCSETVPETVRWVWPWNP | soluble
MSLIEDCLRSYRFIAIDTEFPSTLRETTQHATDEERYMDMSFSVDRAKLIQLGLTLFDINGRIGGTWEINFSDFGVDDARNEKSIEFLRRNGLDLRKIREEGIRIEGFFSEMFWMLKKTRRNITWVTFHGSYDIAYLLKGFTGEALPVTSERFSKAVARVLGSVYDLKVMAGRCEGLSSRLGLETLAHEFGLNRVGTAHHAGSNNELTAMVFAKVLSPFPLFLRFGSLELRTIESEAIV | soluble
MRLKKLYLKGFKSFGRPSLIGFSDRVTAIVGPNGSGKSNIIDAIKWVFGEQSKKELRASEKFDMIFAGSENLPPAGSAYVELVFEENGEEITVARELKRTGENTYYLNGSPVRLKDIRDRFAGTGLGVDFYSIVGQGQIDRIVNASPEELRLESSKHPTSLVPRGSYQRVNESFNRFISLLFFGGEGRLNIVSEAKSILDAGFEISIRKPGRRDQKLSLLSGGEKALVGLALLFALMEIKPSPFYVLDEVDSPLDDYNAERFKRLLKENSKHTQFIVITHNKIVMEAADLLHGVTMVNGVSAIVPVEVEKILEVGSHHHHHH | soluble
PKTQRGIYHNLKESEYVASNTDVTFFFSSELYLNKFLDGYQEYRKKFNKKIERVAVTPWNMDMLADITFYSEVEKRGFHAWLKGDNATWREVHVYALRIMTKPNTLDWSRIQKPRLRERRKSM | soluble
MGSDKIHHHHHHMNKINRVAIVGGTHGNEFTGAFLVKKFQQFPEVIQKPSFETLTILGNPKAFEAGKRYIEKDLNRCFLTESLQNTNLSSYEDIRAKQIAGVLGAENKPNVDVVIDLHSTTANMGLSIILGNQDPFLLKLCAYLSDINPLVKVCYTIPEKGSNFLRSLNKLGFVIEVGAVAQGVLNAELFQKTEQLIYTILDYLEQYNRGNIPKINNLLALYKFTGTVDYPRNENGDIQGMIHPDIQFRDYEPLNPGDPLFLTLDGKAIAYEGTSTVYPIFINEAAYYEKGIAMLFTEKQLINPSS | not soluble
MSNVTPKLVWPEDDYVDESLLEDHQGPARLEYDALVMLANLPPLTEEIMSRCPALPVKTRSTPEYTLVLDLDETLVHCSLTPLDNATMVFPVVFQNITYQVYVRLRPHLRTFLSRMAKTFEIIIFTASKKVYANKLCDILDPRKNHIRHRLFREHCVCVFGNYVKDLTILGRDPSKTMILDNAVQSFAYQLDNGIPIESWFHDRNDTELLKLCSFLEAIPTLGRDVREILRHKYRLRDHIPFYSIIHQQEGPGRLPLLEVAPPPVTEPNDEQLITQVVQKHPQLVQG | soluble
MRTFESVADLAAAAGEKVGQSDWVTITQEEVNLFADATGDHQWIHVDPERAAAGPFGTTIAHGFMTLALLPRLQHQMYTVKGVKLAINYGLNKVRFPAPVPVGSRVRATSSLVGVEDLGNGTVQATVSTTVEVEGSAKPACVAESIVRYVA | soluble
MHHHHHHGSMSMPNHQNMLDNQTILITGGTGSFGKCFVRKVLDTTNAKKIIVYSRDELKQSEMAMEFNDPRMRFFIGDVRDLERLNYALEGVDICIHAAALKHVPIAEYNPLECIKTNIMGASNVINACLKNAISQVIALSTDKAANPINLYGATKLCSDKLFVSANNFKGSSQTQFSVVRYGNVVGSRGSVVPFFKKLVQNKASEIPITDIRMTRFWITLDEGVSFVLKSLKRMHGGEIFVPKIPSMKMTDLAKALAPNTPTKIIGIRPGEKLHEVMIPKDESHLALEFEDFFIIQPTISFQTPKDYTLTKLHEKGQKVAPDFEYSSHNNNQWLEPDDLLKLL | soluble
MGSDKIHHHHHHMNIGLLEALDQLEEEKGISKEEVIPILEKALVSAYRKNFGNSKNVEVVIDRNTGNIKVYQLLEVVEEVEDPATQISLEEAKKIDPLAEVGSIVKKELNVKNFGRIAAQTAKQVLIQRIRELEKEKQFEKYSELKGTVTTAEVIRVMGEWADIRIGKLETRLPKKEWIPGEEIKAGDLVKVYIIDVVKTTKGPKILVSRRVPEFVIGLMKLEIPEVENGIVEIKAIAREPGVRTKVAVASNDPNVDPIGACIGEGGSRIAAILKELKGEKLDVLKWSDDPKQLIANALAPATVIEVEILDKENKAARVLVPPTQLSLAIGKGGQNARLAAKLTGWKIDIKPIMNL | not soluble
MGHHHHHHMRSYEKSKTAFKEAQKLMPGGVNSPVRAFKSVDMDPIFMERGKGSKIFDIDGNEYIDYVLSWGPLILGHTNDRVVESLKKVAEYGTSFGAPTEVENELAKLVIDRVPSVEIVRMVSSGTEATMSALRLARGYTGRNKILKFEGCYHGHGDSLLIKAGSGVATLGLPDSPGVPEGIAKNTITVPYNDLESVKLAFQQFGEDIAGVIVEPVAGNMGVVPPQEGFLQGLRDITEQYGSLLIFDEVMTGFRVDYNCAQGYFGVTPDLTCLGKVIGGGLPVGAYGGKAEIMEQIAPSGPIYQAGTLSGNPLAMTAGLETLKQLTPDSYKNFIKKGDRLEEGISKAAEAHGIPHTFNRAGSMIGFFFTNEPVINYETAKASDLKLFASYYKGMANEGVFLPPSQFEGLFLSTAHTDEDIENTIQAAEKVFAEISRR | soluble
SGERDQSSDTDQERKGGKHPYSSHYSSDFGSSPQSSGPSSPVNTPPCASNREKNPKRHLSDHHVRHQTVRKVSPKAIPNKKGVRVGFRSQSLNREPLRKDPDIVTKRVLSARLLKITELQNEVSELQVKLAQLLKENKALKSLQYRQEKALSKFEDAENEISQLIHRHNGEITALKERLRKSQEKERMAEKRVKDTEGELFRTKFSLQKLKKISEARHLPERDDLAKKLVSAELKLDNTEKD | not soluble
MSLWLPSEATVYLPPVPVSKVVSTDEYVARTNIYYHAGTSRLLAVGHPYFPIKKPNNNKILVPKVSGLQYRVFRIHLPDPNKFGFPDTSFYNPDTQRLVWACVGVEVGRGQPLGVGISGHPLLNKLDDTENASAYAANAGVDNRECISMDYKQTQLCLIGCKPPIGEHWGKGSPCTQVAVQPGDCPPLELINTVIQDGDMVDTGFGAMDFTTLQANKSEVPLDICTSICKYPDYIKMVSEPYGDSLFFYLRREQMFVRHLFNRAGTVGENVPDDLYIKGSGSTANLASSNYFPTPSGSMVTSDAQIFNKPYWLQRAQGHNNGICWGNQLFVTVVDTTRSTNMSLCAAISTSETTYKNTNFKEYLRHGEEYDLQFIFQLCKITLTADVMTYIHSMNSTILEDWNFGLQPPPGGTLEDTYRFVTSQAIACQKHTPPAPKEDPLKKYTFWEVNLKEKFSADLDQFPLGRKFLLQLGLKAKPKFTLGKRKATPTTSSTSTTAKRKKRKL | soluble

— the DeepSol protein solubility set
